# Values of other authors, collected in paper PMC4497409.
# Where “and” joins values, the source holds several entries; their conditions need not be identical. Identical values can stand only once.
# Tests used:
# [1] = target: Frizzled4 CRD (Mus musculus) (UniProt Q61088); assay: ELISA
# [2] = target: Lrp6 P1E1P2E2 (Homo sapiens) (UniProt O75581); assay: AlphaScreen
# [3] = target: Frizzled4 CRD (Homo sapiens) (UniProt Q9ULV1); assay: AlphaScreen
# Chain of Frizzled4 CRD (Homo sapiens) (Q9ULV1 40-161): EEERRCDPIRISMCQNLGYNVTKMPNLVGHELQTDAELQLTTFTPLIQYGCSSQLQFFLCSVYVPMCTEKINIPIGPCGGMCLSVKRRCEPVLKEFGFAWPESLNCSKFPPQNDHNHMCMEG
# Chain of Frizzled4 CRD (Mus musculus) (Q61088 40-161): as the sequence (Q9ULV1 40-161) above, with S12A, K94R, E102D, S103T counted along it
# Chain of Lrp6 P1E1P2E2 (Homo sapiens) (O75581 20-630): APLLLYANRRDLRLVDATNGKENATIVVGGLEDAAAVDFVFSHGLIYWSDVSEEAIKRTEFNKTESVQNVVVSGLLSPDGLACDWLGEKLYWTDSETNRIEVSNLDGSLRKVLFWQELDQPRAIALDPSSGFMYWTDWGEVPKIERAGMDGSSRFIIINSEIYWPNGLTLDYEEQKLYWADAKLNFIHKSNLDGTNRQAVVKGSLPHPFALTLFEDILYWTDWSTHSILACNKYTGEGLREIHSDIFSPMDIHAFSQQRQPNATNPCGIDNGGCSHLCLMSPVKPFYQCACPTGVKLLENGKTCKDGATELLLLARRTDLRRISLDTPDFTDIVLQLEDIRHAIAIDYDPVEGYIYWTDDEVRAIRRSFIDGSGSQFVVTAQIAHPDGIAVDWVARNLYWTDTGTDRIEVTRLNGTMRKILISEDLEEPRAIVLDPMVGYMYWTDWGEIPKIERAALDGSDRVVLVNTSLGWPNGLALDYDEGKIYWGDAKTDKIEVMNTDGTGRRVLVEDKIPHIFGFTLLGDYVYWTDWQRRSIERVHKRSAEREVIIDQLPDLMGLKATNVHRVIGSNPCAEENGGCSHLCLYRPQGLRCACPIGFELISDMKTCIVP
# Chain of Norrin (P48744 25-131): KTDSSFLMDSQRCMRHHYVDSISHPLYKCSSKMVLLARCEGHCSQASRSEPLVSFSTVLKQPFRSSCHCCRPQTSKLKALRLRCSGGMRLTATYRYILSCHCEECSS
Substance,Kd [1] [nM],Kd [2] [nM],Kd [3]
Norrin (from UniProt P48744),3.5,–,–
Norrin (from UniProt Q00604),–,450,11 nM and 5 nM
